In article doi:10.1101/2025.06.10.658827:

Biological target: cyXR, xanthorhodopsin from an Antarctic filamentous cyanobacterium (genus Pseudanabaena) (Pseudanabaena (Antarctic MAG, Dry Valleys))
Test: cryo-EM structure

Substance: cyXR, xanthorhodopsin from an Antarctic filamentous cyanobacterium (genus Pseudanabaena) (natural protein)
- stoichiometry N: 5
